Laboratory results taken from ChEMBL document CHEMBL1255339, “Biochemical characterization of SHV-55, an extended-spectrum class A beta-lactamase from Klebsiella pneumoniae” (Antimicrob Agents Chemother, 2008).

Columns and labels:
[1] = substrate: CC1(C)S[C@@H]2[C@H](NC(=O)Cc3ccccc3)C(=O)N2[C@H]1C(=O)O; assay: (§1) Activity of Klebsiella pneumoniae Beta-Lactamase SHV-1
[2] = substrate: CC1(C)S[C@@H]2[C@H](NC(=O)[C@H](C(=O)O)c3ccsc3)C(=O)N2[C@H]1C(=O)O; assay: as §1
[3] = substrate: CO/N=C(\C(=O)N[C@@H]1C(=O)N2C(C(=O)O)=C(COC(N)=O)CS[C@H]12)c1ccco1; assay: as §1
[4] = substrate: CO/N=C(\C(=O)N[C@@H]1C(=O)N2C(C(=O)[O-])=C(C[N+]3(C)CCCC3)CS[C@H]12)c1csc(N)n1; assay: as §1
[5] = substrate: C[C@H]1[C@H](NC(=O)/C(=N\OC(C)(C)C(=O)O)c2csc(N)n2)C(=O)N1S(=O)(=O)O; assay: as §1
[6] = substrate: CC1(C)S[C@@H]2[C@H](NC(=O)Cc3ccccc3)C(=O)N2[C@H]1C(=O)O; assay: (§2) Ratio of Kcat to Km for Klebsiella pneumoniae Beta-Lactamase SHV-55
[7] = substrate: CC1(C)S[C@@H]2[C@H](NC(=O)[C@H](C(=O)O)c3ccsc3)C(=O)N2[C@H]1C(=O)O; assay: as §2
[8] = substrate: CCN1CCN(C(=O)N[C@@H](C(=O)N[C@@H]2C(=O)N3[C@@H]2SC(C)(C)[C@@H]3C(=O)O)c2ccccc2)C(=O)C1=O; assay: as §2
[9] = substrate: CO/N=C(\C(=O)N[C@@H]1C(=O)N2C(C(=O)O)=C(COC(N)=O)CS[C@H]12)c1ccco1; assay: as §2
[10] = substrate: CO/N=C(\C(=O)N[C@@H]1C(=O)N2C(C(=O)[O-])=C(C[N+]3(C)CCCC3)CS[C@H]12)c1csc(N)n1; assay: as §2
[11] = substrate: CC1(C)S[C@@H]2[C@H](NC(=O)Cc3ccccc3)C(=O)N2[C@H]1C(=O)O; assay: (§3) Activity of Klebsiella pneumoniae Beta-Lactamase SHV-55
[12] = substrate: CC1(C)S[C@@H]2[C@H](NC(=O)[C@H](C(=O)O)c3ccsc3)C(=O)N2[C@H]1C(=O)O; assay: as §3
[13] = substrate: CCN1CCN(C(=O)N[C@@H](C(=O)N[C@@H]2C(=O)N3[C@@H]2SC(C)(C)[C@@H]3C(=O)O)c2ccccc2)C(=O)C1=O; assay: as §3
[14] = substrate: CO/N=C(\C(=O)N[C@@H]1C(=O)N2C(C(=O)O)=C(COC(N)=O)CS[C@H]12)c1ccco1; assay: as §3
[15] = substrate: CO/N=C(\C(=O)N[C@@H]1C(=O)N2C(C(=O)[O-])=C(C[N+]3(C)CCCC3)CS[C@H]12)c1csc(N)n1; assay: as §3
[16] = substrate: C[C@H]1[C@H](NC(=O)/C(=N\OC(C)(C)C(=O)O)c2csc(N)n2)C(=O)N1S(=O)(=O)O; assay: as §3

B1: Beta-lactamase SHV-1 (Klebsiella pneumoniae), P0AD64 (protein)
chain: MRYIRLCIISLLATLPLAVHASPQPLEQIKLSESQLSGRVGMIEMDLASGRTLTAWRADERFPMMSTFKVVLCGAVLARVDAGDEQLERKIHYRQQDLVDYSPVSEKHLADGMTVGELCAAAITMSDNSAANLLLATVGGPAGLTAFLRQIGDNVTRLDRWETELNEALPGDARDTTTPASMAATLRKLLTSQRLSARSQRQLLQWMVDDRVAGPLIRSVLPAGWFIADKTGAGERGARGIVALLGPNNKAERIVVIYLRDTPASMAERNQQIAGIGAALIEHWQR
In the case of B1, the Km [1] is reported as 23 µM, the kcat [2] is reported as 220 s⁻¹ and the Km [3] is reported as 80 µM. It also gave a kcat [3] of under 0.1 s⁻¹, a Km [4] of 149 µM and a kcat [4] of under 0.1 s⁻¹. It also gave a kcat [5] of under 0.1 s⁻¹.

B2: Beta-lactamase SHV-55 (Klebsiella pneumoniae), Q4TVR4 (protein)
chain: MRFIRLCIISLLATLPLAVHASPQPLEQIKLSESQLSGRVGMIEMDLASGRTLTAWRADERFPMMSTFKVVLCGAVLARVDAGDEQLERKIHYRQQDLVDYSPVSEKHLADGMTVGELCAAAITMSDNSAANLLLATVGGPAGLTAFLRQIGDNVTRLDRWETELNEALPGDARDTTTPASMAATLRKLLTSQRLSARSQRQLLQWMVDDRVAGPLIRSVLPAGWFIADKTGASKRGARGIVALLGPNNKAERIVVIYLRDTPASMAERNQQIAGIGAALIEHWQR
In the case of B2, the kcat/Km [6] is reported as 5.3e+06 M⁻¹ s⁻¹, the kcat/Km [7] is reported as 1.5e+06 M⁻¹ s⁻¹ and the kcat/Km [8] is reported as 3.7e+06 M⁻¹ s⁻¹. It also gave a kcat/Km [9] of 300000 M⁻¹ s⁻¹, a kcat/Km [10] of 200000 M⁻¹ s⁻¹ and a Km [11] of 5 µM. The Km [12] was 6 µM, the kcat [12] was 8 s⁻¹ and the Km [13] was 8 µM. It also gave a kcat [13] of 27 s⁻¹, a kcat [14] of 7 s⁻¹ and a Km [15] of 149 µM. For the same protein, the kcat [15] was 30 s⁻¹, the Km [16] was 5 µM and the kcat [16] was under 0.1 s⁻¹.
